We go through one protein from publication PMC7084321, “Structural and Functional Characterization of New SsoPox Variant Points to the Dimer Interface as a Driver for the Increase in Promiscuous Paraoxonase Activity” (International Journal of Molecular Sciences, 2020).

The series concerns the molecule itself. Kind of series: crystal structure; sitting drop vapor diffusion at 19 °C; space group P212121, two dimers per asymmetric unit; 4Mut at 6.0 mg/mL in 20 mM HEPES-NaOH pH 8.5, 0.5 mM CoCl2, 200 mM NaCl.

B1: SsoPox V82L/C258L/I261F/W263A (4Mut) (enzyme, Saccharolobus solfataricus, UniProt Q97VT7 1-314, looked up)
chain: MRIPLVGKDSIESKDIGFTLIHEHLRVFSEAVRQQWPHLYNEDEEFRNAVNEVKRAMQFGVKTIVDPTVMGLGRDIRFMEKLVKATGINLVAGTGIYIYIDLPFYFLNRSIDEIADLFIHDIKEGIQGTLNKAGFVKIAADEPGITKDVEKVIRAAAIANKETKVPIITHSNAHNNTGLEQQRILTEEGVDPGKILIGHLGDTDNIDYIKKIADKGSFIGLDRYGLDLFLPVDKRNETTLRLIKDGYSDKIMISHDYLCTFDAGTAKPEYKPKLAPRWSITLIFEDTIPFLKRNGVNEEVIATIFKENPKKFFS
notes: SsoPox, phosphotriesterase-like lactonase from Saccharolobus solfataricus, with four substitutions; primers run from the start codon (NdeI site) to behind the stop codon (HindIII site); Two cobalt atoms per protein by ICP-MS; also called SsoPox 4Mut; SsoPox-4Mut; source: E. coli BL21(DE3), pT7-7-4Mut, purified (thermoprecipitation, Q-Sepharose, Superdex 75, MonoQ)
Turning to B1, the binding result is “binds”.
